From the supplement of paper PMC9170038

Test system: MS2 coat protein
Test: apparent KD of MS2 coat protein; designed switch direction (-1 OFF switch, 1 ON switch): 1; higher = weaker reporter binding
How it was run: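 Stalled E. coli RNA polymerase transcribed designed RNA switches on Illumina chips, which were then titrated with SNAP-549-labelled MS2 coat protein, doubling from 0.7 or 1.5 nM to 3 µM. Steps lasted from 0.8–1.5 h at the lowest concentration to 10–20 min at the highest. The apparent KD is each design's median over clusters of curve-fitted normalised fluorescence.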

[1] = Eterna round: R95, input ligand: FMN 200 uM
[2] = Eterna round: R95, input ligand: microRNA oligo, concentration not stated
[3] = Eterna round: R95, input ligand: none
[4] = input ligand: microRNA oligo, concentration not stated

Sequence | apparent KD of MS2 coat protein [1] [nM] | apparent KD of MS2 coat protein [2] [nM] | apparent KD of MS2 coat protein [3] [nM] | apparent KD of MS2 coat protein (input ligand: FMN 200 uM) [nM] | apparent KD of MS2 coat protein [4] [nM] | apparent KD of MS2 coat protein (input ligand: none) [nM]
UAGUACAAGCUUUUUGCCCGUCUUAUUUAACAUGAGGAUCACCCAUGUAAGGUGAAAGUUAGAGAGUGGAGGUUGAA [JR_SHM208A_Sub049] (puzzle: Sensor for hsa-mir-208a) | 205 | 227 | 249 | – | – | –
UGGUAACAUGAGGAUCACCCAUGUCAAGAGAAUCAAGGAUAUGGUAAGUAAUAAGAGAAUCUAGAAGGUGAAGUUG [Altered State 1-25 - Jieux - Same State 1] (puzzle: Same State 1) | – | 73.3 | – | – | – | –
GGAGAGAGAGCACAGGAUAUGAGAGGAGAGACAUGAGGAUCACCCAUGUAAGAGAGAGAGGAGAGUUAGAAGGGUGAGAGAGAGG [Altered State 2-20 - Jieux - Same State 2] (puzzle: Same State 2) | 54.7 | 43 | 102 | – | – | –
GUAGCAUACCGAGGAUAUUCAUAUUACAUGAGGAUCACCCAUGUUAUAGGCCGAUUACGGCCUUGGGAGAAGGCGGAAUGCUAC [Xeonanis - 20 Mod24] (Eterna round: R96, puzzle: Same State NG 2) | – | – | – | 17.4 | 38.1 | 37.6
AACAGUCGGCGAGGAUAUGGACAUACGGACUAACCCGUAUGGCUCACAUGAGGAUCACCCAUGUUCUAGAAGGCGCCACUGAAA [Raridi] (Eterna round: R96, puzzle: Same State NG 2) | – | – | – | 14.6 | 43.4 | 74
AGCUAGUACGAAGGAUAUACAAACAUGAGGAUCACCCAUGUAUACAUGGUUUGAUGAGACUACAUGUAGAAGGUCGUACUAGCA [SameState NG2 #14] (Eterna round: R96, puzzle: Same State NG 2) | – | – | – | – | 176 | –
GCGAGCGUACUUGCUACAUGAGGAUCACCCAUGUUUUAUGGACAGGAUAUGGUACCGUUUCGGUACCAGAAGGGUUCACAUGUA [JL SSNG3 3.83] (Eterna round: R96, puzzle: Same State NG 3) | – | – | – | 116 | 150 | 426
CGACACACGGCAGGAUAUGCUUAGCAAAGCUAAGCAGAAGGGCCUCAUGUCGUGGAAACCUGACAUGAGGAUCACCCAUGUCGG [Omei SS(NG)1 Cv3] (Eterna round: R96, puzzle: Same State NG 1) | – | – | – | 23.8 | 11.6 | 37.6
AGUCCAGCCUGAGCUGGACAAAAGCAUGUACAUGAGGAUCACCCAUGUUCAUGUACAAGCUUUUUGCUCGUCUUGAA [salish99_208a_r3_095x] (Eterna round: R96, puzzle: Sensor for hsa-mir-208a) | – | – | – | 646 | 16.1 | 572
AGCAAAGCGACAGGAUAUGGUAAGGAUCUCUUACCAGAAGGGUCAAGUGCAUGACAUGAGGAUCACCCAUGUAGGUUGUUUACC [Eternabot solution 44] (Eterna round: R96, puzzle: Same State NG 1) | – | – | – | 18.2 | 18.5 | 26.5
GAAAAACAUGAGGAUCACCCAUGUGAGAAUAUGGGAGGAUAUACGAGGACGAGAGUCAAGGUAGAAGGCCUAAAAG [Garnet 75] (Eterna round: R96, puzzle: Same State 1) | – | – | – | 45.3 | 255 | 314
AGAUAAGUCACAGGAUAUUCCUACAUUAAUAUGGAAGAAGGGUGAGCAUGAUUCGAUACAUGAGGAUCACCCAUGUAUCCGCGA [Eternabot solution 31] (Eterna round: R96, puzzle: Same State NG 1) | – | – | – | – | 54 | –
AAAGCACAUGAGGAUCACCCAUGUGGAAAUAACACAGGAUAUCCGGCCGAAACUAAGGUGGGAGAAGGGUGACCUA [Aeriste] (puzzle: Same State 1) | 191 | 40.2 | 73.5 | – | – | –
